Source: patent US20200040059A1
“And” between values parts separate entries of the source, which are not always exact repeats. Equal values may be shown once.

Experiments:
[1] = target: T1, human CD226, full length, expressed on transfected cells (human) (UniProt Q15762); experiment: flow cytometry on transfected cells
T1 sequence: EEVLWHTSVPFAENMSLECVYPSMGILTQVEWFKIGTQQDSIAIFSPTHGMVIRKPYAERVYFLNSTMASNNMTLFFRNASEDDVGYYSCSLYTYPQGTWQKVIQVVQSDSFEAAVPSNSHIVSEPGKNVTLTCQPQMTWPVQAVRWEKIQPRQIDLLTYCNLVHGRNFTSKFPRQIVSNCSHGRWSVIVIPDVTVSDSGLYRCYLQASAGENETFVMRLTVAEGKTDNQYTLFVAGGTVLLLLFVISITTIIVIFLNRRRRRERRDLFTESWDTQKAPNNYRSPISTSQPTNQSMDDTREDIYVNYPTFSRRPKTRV

[2] = target: CD112R, expressed on transfected cells (human) (UniProt Q6DKI7); experiment: flow cytometry on transfected cells
CD112R, expressed on transfected cells (human), sequence (Q6DKI7 whole entry): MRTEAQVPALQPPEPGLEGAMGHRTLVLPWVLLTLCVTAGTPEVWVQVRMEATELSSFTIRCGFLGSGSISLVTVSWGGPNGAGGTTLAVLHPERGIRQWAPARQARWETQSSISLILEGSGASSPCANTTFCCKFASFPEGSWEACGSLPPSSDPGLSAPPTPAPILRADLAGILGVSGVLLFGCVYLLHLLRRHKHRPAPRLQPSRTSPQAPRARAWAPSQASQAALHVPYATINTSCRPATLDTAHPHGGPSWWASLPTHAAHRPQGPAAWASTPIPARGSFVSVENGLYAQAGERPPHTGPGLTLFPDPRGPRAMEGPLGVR

[3] = target: T2, human TIGIT, full length, expressed on transfected cells (human) (UniProt Q495A1); experiment: flow cytometry on transfected cells
T2 sequence: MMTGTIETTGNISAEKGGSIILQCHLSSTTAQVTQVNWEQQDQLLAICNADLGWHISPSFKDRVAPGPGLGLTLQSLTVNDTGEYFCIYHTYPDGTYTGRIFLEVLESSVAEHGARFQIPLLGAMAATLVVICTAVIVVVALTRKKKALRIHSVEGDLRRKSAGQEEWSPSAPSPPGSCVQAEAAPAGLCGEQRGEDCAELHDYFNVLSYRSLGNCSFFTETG

[4] = target: CD96, expressed on transfected cells (UniProt P40200); experiment: flow cytometry on transfected cells
[5] = target: CD112R (human) (UniProt Q6DKI7); experiment: flow cytometry, cells expressing target, 25 nM
CD112R (human), sequence (Q6DKI7 whole entry): as the sequence (Q6DKI7 whole entry) above

[6] = target: T3, CD96 (UniProt P40200); experiment: flow cytometry, cells expressing target, 25 nM
T3 sequence (looked up): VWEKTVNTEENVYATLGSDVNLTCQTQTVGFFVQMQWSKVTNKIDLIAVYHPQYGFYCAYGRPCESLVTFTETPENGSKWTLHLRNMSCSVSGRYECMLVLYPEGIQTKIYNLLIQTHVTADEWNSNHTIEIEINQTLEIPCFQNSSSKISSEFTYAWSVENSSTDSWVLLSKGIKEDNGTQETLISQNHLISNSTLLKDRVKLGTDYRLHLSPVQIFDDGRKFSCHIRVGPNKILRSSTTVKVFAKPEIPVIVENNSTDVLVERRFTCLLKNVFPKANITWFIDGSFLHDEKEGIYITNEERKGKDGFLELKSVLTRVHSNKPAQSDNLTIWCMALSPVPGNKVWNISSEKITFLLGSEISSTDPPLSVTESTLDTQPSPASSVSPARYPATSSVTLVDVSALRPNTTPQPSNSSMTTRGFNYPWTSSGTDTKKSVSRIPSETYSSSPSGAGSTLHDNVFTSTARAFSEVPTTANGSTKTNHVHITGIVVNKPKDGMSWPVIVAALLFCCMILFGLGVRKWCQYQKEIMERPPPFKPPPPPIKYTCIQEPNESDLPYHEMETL

[7] = target: T4, CD226 (human) (UniProt Q15762); experiment: flow cytometry, cells expressing target, 25 nM
T4 sequence: T1 sequence

[8] = target: human PD-L1, full length, on transfected HEK293 cells (human) (UniProt Q9NZQ7); experiment: flow cytometry, Fc fusion at 22.2 nM on HEK293 cells transfected with PD-L1
human PD-L1, full length, on transfected HEK293 cells (human), sequence (Q9NZQ7 19-290 limits assumed): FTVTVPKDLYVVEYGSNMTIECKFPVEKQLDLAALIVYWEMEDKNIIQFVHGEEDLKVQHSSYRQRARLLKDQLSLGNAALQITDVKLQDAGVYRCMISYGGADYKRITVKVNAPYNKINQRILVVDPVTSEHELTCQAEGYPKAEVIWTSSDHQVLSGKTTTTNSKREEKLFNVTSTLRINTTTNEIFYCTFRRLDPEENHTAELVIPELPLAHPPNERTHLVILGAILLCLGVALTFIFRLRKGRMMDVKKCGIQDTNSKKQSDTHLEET

[9] = target: human CD28, full length, on transfected HEK293 cells (human) (UniProt P10747); experiment: flow cytometry, Fc fusion at 66.6 nM on HEK293 cells transfected with CD28
[10] = target: PD-L1 (human) (UniProt Q9NZQ7); experiment: flow cytometry on HEK293 cells transfected with PD-L1
PD-L1 (human), sequence (Q9NZQ7 19-290 limits assumed): as above

wild-type CD155 IgV-Fc, sequence (P15151 24-139 limits assumed): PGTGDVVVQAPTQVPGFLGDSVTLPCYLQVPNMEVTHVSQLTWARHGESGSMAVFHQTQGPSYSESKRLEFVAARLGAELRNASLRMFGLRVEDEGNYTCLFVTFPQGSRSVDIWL

MFI at 100 nM [1] | MFI at 100 nM [2] | MFI at 100 nM [3] | MFI at 100 nM [4] | MFI at 22.2 nM [8] | MFI at 66.6 nM [9] | Substance | further results
2260 | 1800 | 3140 | 1560 | – | – | CD155 variant L104E IgV-Fc (from UniProt P15151 24-139) (Fc fusion) | –
2150 | 1860 | 2400 | 1740 | – | – | CD155 variant S42N, S52Q, Q62F IgV-Fc (from UniProt P15151 24-139) (Fc fusion) | –
1890 | – | 2260 | – | – | – | CD155 variant S42A, S52L, L104E, G111R IgV-Fc (from UniProt P15151 24-139) (Fc fusion) | –
– | – | – | – | – | – | CD155 variant IgV-Fc P18S, P34S, E51V, L79P, F91S, G111R (from UniProt P15151 24-139) (Fc fusion) | MFI at 25 nM [5]: 853 MFI; MFI at 25 nM [6]: 892 MFI; MFI at 25 nM [7]: 769 MFI
2210 | – | 4320 | 1830 | – | – | CD155 variant S52L, L104E IgV-Fc (from UniProt P15151 24-139) (Fc fusion) | –
– | – | – | – | 1870 MFI | 16700 MFI | CD80 variant IgV-Fc T13R/M42V/M47I/A71D (from UniProt P33681 35-141) (Fc fusion) | –
– | – | – | – | 18900 MFI | 2450 MFI | CD80 variant IgV-Fc Y31H/E35D/T41S/V68L/K93R/R94W (from UniProt P33681 35-141) (Fc fusion) | –
5790 | 1770 | 4810 | 2450 | – | – | CD155 variant T45Q, S52Q IgV-Fc (from UniProt P15151 24-139) (Fc fusion) | –
– | – | – | – | 1080 MFI | 8860 MFI | CD80 variant IgV-Fc H18Y/A71D/L72P/E88V (from UniProt P33681 35-141) (Fc fusion) | –
– | – | – | – | 27300 MFI | 6370 MFI | CD80 variant IgV-Fc E35D/M43I/A71D (from UniProt P33681 35-141) (Fc fusion) | –
3170 | 1730 | 2970 | 2360 | – | – | CD155 variant S52R, Q62F, L104Q, G111R IgV-Fc (from UniProt P15151 24-139) (Fc fusion) | –
2390 | 1740 | 2290 | 1580 | – | – | CD155 variant T45Q, S52L, L104E, G111R IgV-Fc (from UniProt P15151 24-139) (Fc fusion) | –
3790 | 2120 | 10300 | 1540 | – | – | CD155 variant L104Q IgV-Fc (from UniProt P15151 24-139) (Fc fusion) | –
– | – | – | – | – | – | CD80 IgV-Fc Q27H/M43I/A71D/R73S (from UniProt P33681 35-141) (Fc fusion) | MFI at 22.2 nM [10]: 8240 MFI
– | – | – | – | 9350 MFI | 11200 MFI | CD80 variant IgV-Fc E35D/I67L/A71D (from UniProt P33681 35-141) (Fc fusion) | –
– | – | – | – | 1400 MFI | 8150 MFI | CD80 variant IgV-Fc V22L/E35G/A71D/L72P (from UniProt P33681 35-141) (Fc fusion) | –
– | – | – | – | – | – | CD155 variant IgV-Fc P18S, L21M, Y30F, N35D, R84W, F91S, T107M, D116G (from UniProt P15151 24-139) (Fc fusion) | MFI at 25 nM [5]: 946 MFI; MFI at 25 nM [6]: 1030 MFI; MFI at 25 nM [7]: 743 MFI
2570 | 2710 | 2210 | 2760 | – | – | CD155 variant Q62F IgV-Fc (from UniProt P15151 24-139) (Fc fusion) | –
2020 | 1790 | 2290 | 1820 | – | – | CD155 variant S52Q IgV-Fc (from UniProt P15151 24-139) (Fc fusion) | –

MFI at 100 nM [1] | MFI at 100 nM [2] | MFI at 100 nM [3] | MFI at 100 nM [4] | MFI at 22.2 nM [8] | MFI at 66.6 nM [9] | Substance | further results
2320 and 2370 and 4690 | 2170 and 1740 and 2940 | 2180 and 4690 | 1890 and 1680 and 3270 | – | – | wild-type CD155 IgV-Fc (from UniProt P15151 24-139) (Fc fusion) | –
– | – | – | – | 8420 MFI | 6310 MFI | CD80 variant IgV-Fc A71D/L72V/E95K (from UniProt P33681 35-141) (Fc fusion) | –
– | – | – | – | – | – | CD155 variant IgV-Fc V9L, P18Y, V25A, V38G, M55V, A77T, L79P, M90I, F91S, L104M (from UniProt P15151 24-139) (Fc fusion) | MFI at 25 nM [5]: 919 MFI; MFI at 25 nM [6]: 18000 MFI; MFI at 25 nM [7]: 26000 MFI
– | – | – | – | – | – | CD155 variant IgV-Fc V11A, P18T, N35S, L79P, S87T, F91S (from UniProt P15151 24-139) (Fc fusion) | MFI at 25 nM [5]: 1270 MFI; MFI at 25 nM [6]: 69900 MFI; MFI at 25 nM [7]: 274000 MFI
– | – | – | – | 1580 MFI | 3700 MFI | CD80 variant IgV-Fc E35G/K54E/A71D/L72P (from UniProt P33681 35-141) (Fc fusion) | –
– | 2740 | 4400 | 4850 | – | – | CD155 variant S52R IgV-Fc (from UniProt P15151 24-139) (Fc fusion) | –
– | – | – | – | 13800 MFI | 15000 MFI | CD80 variant IgV-Fc E35D/A71D (IgV SEQ ID NO:622) (from UniProt P33681 35-141) (Fc fusion) | –
– | – | – | – | – | – | CD155 variant IgV-Fc T15I, P18S, V33M, N35F, T39S, M55L, R78S, L79P, F91S, T107M (from UniProt P15151 24-139) (Fc fusion) | MFI at 25 nM [5]: 789 MFI; MFI at 25 nM [6]: 2710 MFI; MFI at 25 nM [7]: 1020 MFI
– | – | – | – | 1220 MFI | 7410 MFI | CD80 variant IgV-Fc A12T/E24D/E35D/D46V/I61V/L72P/E95V (from UniProt P33681 35-141) (Fc fusion) | –
– | – | – | – | 22800 MFI | 16800 MFI | CD80 variant IgV-Fc D46E/A71D (from UniProt P33681 35-141) (Fc fusion) | –
– | – | – | – | – | – | CD80 IgV-Fc I30V/T57I/L70P/A71D/A91T (from UniProt P33681 35-141) (Fc fusion) | MFI at 22.2 nM [10]: 5890 MFI
– | – | – | – | – | – | CD155 variant IgV-Fc V9I, P18S, S24P, H49Q, F58Y, Q60R, Q62K, L79P, F91S, T107M (from UniProt P15151 24-139) (Fc fusion) | MFI at 25 nM [5]: 1030 MFI; MFI at 25 nM [6]: 43900 MFI; MFI at 25 nM [7]: 1090 MFI
– | – | – | – | 9710 MFI | 15100 MFI | CD80 variant IgV-Fc V20I/M47V/A71D (from UniProt P33681 35-141) (Fc fusion) | –
2130 | 2330 | 2430 | 2560 | – | – | CD155 variant S42W IgV-Fc (from UniProt P15151 24-139) (Fc fusion) | –
– | – | – | – | 25500 MFI | 3450 MFI | CD80 variant IgV-Fc E35D (from UniProt P33681 35-141) (Fc fusion) | –
2450 | 1820 | 4840 | 1700 | – | – | CD155 variant S42G IgV-Fc (from UniProt P15151 24-139) (Fc fusion) | –
– | – | – | – | – | – | CD155 variant IgV-Fc P18S, S42T, E51G, L79P, F91S, G92W, T107M (from UniProt P15151 24-139) (Fc fusion) | MFI at 25 nM [5]: 857 MFI and 935 MFI; MFI at 25 nM [6]: 1050 MFI and 924 MFI; MFI at 25 nM [7]: 707 MFI and 851 MFI
2680 | 2040 | 2220 | 2040 | – | – | CD155 variant S52L IgV-Fc (from UniProt P15151 24-139) (Fc fusion) | –
– | – | – | – | – | – | CD155 variant IgV-Fc P18S, W46R, E68D, L79P, F91S, T107M, R113G (from UniProt P15151 24-139) (Fc fusion) | MFI at 25 nM [5]: 798 MFI; MFI at 25 nM [6]: 737 MFI; MFI at 25 nM [7]: 717 MFI
